Where two headings read alike, the source gives them in different places.
How the values were obtained:
adult patients with RA = test: Study 1: change in C-reactive protein at Week 12; assay type: in vivo, human
Protocol: 407 patients with active RA enrolled in the 2 study arms. Of these patients, 299 (73.5%) patients completed the study until Week 52 and were evaluated.
Patients were grouped into three cohorts based on baseline CRP concentrations: low (<1 mg/dL); intermediate (1-4 mg/dL); and high (>4 mg/dL). Analyses were further conducted in two categories of patients according to their change in CRP concentrations at Week 12: those with a ≧20% decrease in CRP from baseline; or those with a <20% decrease in CRP from baseline. The following efficacy and radiographic measures were analyzed at Week 52 in the three baseline CRP categories and in the two Week 12 change in CRP categories: DAS28, ACR 20/50/70, Health assessment questionnaire (HAQ), and Total Sharp score (TSS).

[1] = system: MTX-naïve adult patients with early RA (<3 years); test: Study J: HAQ DI; assay type: in vivo, human; conditions: for HAQ DI mean change from baseline: LOCF
Excerpt: The Health Assessment Questionnaire Disability Index (HAQ DI) is a disease-specific tool that measures patient-reported physical function in 8 categories corresponding to normal activities in daily living. Fatigue is an important yet still often overlooked systemic symptom of RA. The Functional Assessment of Chronic Illness Therapy-Fatigue (FACIT-F) tool, measured by a 13-item, validated scale, assesses the impact of a disease and its therapy on fatigue.
Study J is described in detail in the above examples. The Health Assessment Questionnaire Disability Index (HAQ DI) and Functional Assessment of Chronic Illness Therapy-Fatigue (FACIT-F) were assessed at baseline, and following 12, 26, 42, 52, 76, and 104 weeks of therapy. Changes in scores were computed by subtracting the baseline from post-treatment score for each patient; mean changes were reported for each treatment group. The HAQ DI is assessed on a scale of 0-3, with higher numbers indicating greater disability. The minimum clinically important difference (MCID) is defined as changes ≧0.22 (Goldsmith C H, et al. J Rheumatol 1993; 20-561-5). The FACIT-F is assessed on a scale of 0-52, with higher scores indicating less fatigue. Changes of ≧4 are considered clinically meaningful (Cella D, et al. J Pain Symptom Manage 2002:24:547-61).

[2] = system: patients with long-standing RA; test: Study I: serious adverse events and withdrawals; conditions: 262 patients
[3] = system: patients with active rheumatoid arthritis; conditions: Study A (N=2008), 12 weeks; cited from earlier work
[4] = system: patients with moderate to severe rheumatoid arthritis; test: Study C (Canadian open-label, adalimumab 40 mg sc eow add-on): TJC/SJC; assay type: in vivo, human
Protocol: The Canadian Adalimumab Clinical Trial (Study C) was an open-label, multi-center, Phase IIIb study conducted in Canada. […] Efficacy and safety were assessed at baseline, 4, 8, and 12 weeks. Efficacy assessments included tender joint count (TJC 0-28), swollen joint count (SJC 0-28), Disease Activity Score 28 (DAS28), Health Assessment Questionnaire (HAQ), and EULAR response. This was a preliminary analysis of 236 patients. The sample size for each outcome variable is based on the data available at the time of the analysis. The data from this preliminary analysis were compared with the Week 12 data from Study A (N=2008).

[5] = system: patients with active rheumatoid arthritis; conditions: Study A (N=2008), 12 weeks; cited from earlier work; remark: listed apart in the source
[6] = system: patients with early vs. long-standing RA; conditions: human, in vivo
Excerpt: Study J was a 2-year randomized controlled trial in patients with early RA (disease duration<3 years). Participants in these clinical trials and in other phase Mb studies, were routinely evaluated for safety. Reports of serious adverse events (SAE) were tabulated using MedDRA coding by events per 100-patient-years (E/100PY). SAE rates were compared with respect to disease duration between patients with early (<3 yrs) and long-standing RA.

[7] = system: patients with long-standing RA
[8] = Study C, 12 weeks, preliminary analysis

CN(Cc1cnc2nc(N)nc(N)c2n1)c1ccc(C(=O)N[C@@H](CCC(=O)O)C(=O)O)cc1 [mtx alone, methotrexate]
patients with <20% decrease in CRP (adult patients with RA): 67%
patients with ≧20% decrease in CRP (adult patients with RA): 33%
HAQ DI mean score ([1]; Baseline): 1.48
HAQ DI mean change from baseline ([1]; ΔWeek 12): −0.53
HAQ DI mean change from baseline ([1]; ΔWeek 26): −0.67
HAQ DI mean change from baseline ([1]; ΔWeek 42): −0.68
HAQ DI mean change from baseline ([1]; ΔWeek 52): −0.69
HAQ DI mean change from baseline ([1]; ΔWeek 76): −0.68
HAQ DI mean change from baseline ([1]; ΔWeek 104): −0.68

adalimumab: human anti-TNF mAb (HUMIRA, Abbott Laboratories), described in U.S. Pat. No. 6,090,382 as D2E7
withdrawals for lack of efficacy [2]: 8%
DAS28 (mean), change from baseline [3]: −2.1
SJC (0-28), change from baseline, median [4, 8]: −7 (123)
TJC (0-28), change from baseline, median [4, 8]: −10 (123)
mean SJC ([4]; week 12 (baseline 14)): 7.4
mean TJC ([4]; week 12 (baseline 17)): 8.1
HAQ (mean), change from baseline [5]: −0.49
Any serious infection [6]: 0.040 N/PY
Serious infections [6]: 4.8 E/100PY
Demyelinating disease ([7]; all exposure): 0.04 E/100-PY
Lymphoma ([7]; all exposure): 0.16 E/100-PY
Pancytopenia ([7]; all exposure): 0.00 E/100-PY
Pneumonia ([7]; all exposure): 0.6 E/100-PY
Septic arthritis ([7]; all exposure): 0.12 E/100-PY
Tuberculosis ([7]; all exposure): 0.04 E/100-PY
Urinary tract infections ([7]; all exposure): 0.28 E/100-PY
Serious infections ([7]; all exposure, 2485 patient-years): 2.62 E/100-PY
Demyelinating disease ([7]; pivotal trials): 0.13 E/100-PY
Lymphoma ([7]; pivotal trials): 0.25 E/100-PY
Pancytopenia ([7]; pivotal trials): 0.25 E/100-PY
Pneumonia ([7]; pivotal trials): 1.13 E/100-PY
Septic arthritis ([7]; pivotal trials): 0.38 E/100-PY
Tuberculosis ([7]; pivotal trials): 0.13 E/100-PY
Urinary tract infections ([7]; pivotal trials): 0.5 E/100-PY
Serious infections ([7]; pivotal trials, 793 patient-years): 4.16 E/100-PY

— patent publication US20120171123A1, “USES AND COMPOSITIONS FOR TREATMENT OF RHEUMATOID ARTHRITIS” (priority 2006, published 2012)
